B1: scFv; the commonest letter at each place (parent)
chain 1: EVKLDETGGGLVQPGRPMKLSCVASGFTFSDYWMNWVRQSPEKGLEWVAQIRNKPYNYETYYSDSVKGRFTISRDDSKSSVYLQMNNLRVEDMGIYYCTGSYYGMDYWGQGTSVTVS
chain 2: DVVMTQTPLSLPVSLGDQASISCRSSQSLVHSNGNTYLRWYLQKPGQSPKVLIYKVSNRFSGVPDRFSGSGSGTDFTLKISRVEAEDLGVYFCSQSTHVPWTFGGGTKLEIK

Key:
fluorescein = variants of: B1; assay: Kd (Tite-Seq); conditions: with fluorescein; format: scFv 4-4-20, heavy + light
[1] = variants of: B1; assay: yeast surface expression (ratio to wild type); higher = more expressed; conditions: format: scFv 4-4-20, heavy + light

Variant | Kd (fluorescein) | yeast surface expression [1]
chain 1 D31E W33N | ≥ 10 µM | 0.845
chain 1 S101G Y107K | ≥ 10 µM | 0.907
chain 1 G100A Y102R G109C | ≥ 10 µM | 0.266
chain 1 F29R | ≥ 10 µM | 0.758
chain 1 N35C V37M | ≥ 10 µM | 0.689
chain 1 G104V Y107K | ≥ 10 µM | 0.324
chain 1 G100D D106W | ≥ 10 µM | 0.254
chain 1 Y103T W108P | ≥ 10 µM | 0.468
chain 1 F29A M34A | ≥ 10 µM | 0.738
chain 1 G100N G109H | ≥ 10 µM | 0.236
chain 1 G100N G109R | ≥ 10 µM | 0.283
chain 1 Y102A Y103K G109C | ≥ 10 µM | 0.237
chain 1 F29E M34E | ≥ 10 µM | 0.455
chain 1 F29R Y32Q | ≥ 10 µM | 0.633
chain 1 G100P W108M | ≥ 10 µM | 0.572
chain 1 G104T D106T Y107L | ≥ 10 µM | 0.547
chain 1 F29L M34C | ≥ 10 µM | 0.745
chain 1 Y102A Y103E | ≥ 10 µM | 1.23
chain 1 Y102Q G104H | ≥ 10 µM | 0.672
chain 1 S30D V37P | ≥ 10 µM | 0.55
chain 1 D31V | ≥ 10 µM | 0.515
chain 1 M105P G109T | ≥ 10 µM | 0.291
chain 1 M34P N35Q | ≥ 10 µM | 0.194
chain 1 M105R G109W | ≥ 10 µM | 0.232
chain 1 D106L G109H | ≥ 10 µM | 0.0932
chain 1 Y102P | ≥ 10 µM | 0.77
chain 1 D31T W33N | ≥ 10 µM | 0.661

Variant | Kd (fluorescein) | yeast surface expression [1]
chain 1 W33D M34W | ≥ 10 µM | 1.03
chain 1 S101C Y107T | ≥ 10 µM | 0.62
chain 1 M34D | ≥ 10 µM | 0.406
chain 1 M34P | ≥ 10 µM | 0.508
chain 1 Y102M M105F | ≥ 10 µM | 0.995
chain 1 F29I W33H M34P | ≥ 10 µM | 0.518
chain 1 S101A G104N | ≥ 10 µM | 0.72
chain 1 Y103D W108R | ≥ 10 µM | 0.524
chain 1 T28Q M34P | ≥ 10 µM | 0.676
chain 1 W33E N35K | ≥ 10 µM | 0.455
chain 1 W33E N35G | ≥ 10 µM | 1.05
chain 1 T28R V37P | ≥ 10 µM | 1.99
chain 1 S30P W33E | ≥ 10 µM | 1.01
chain 1 Y107K | ≥ 10 µM | 0.637
chain 1 S101M Y103D | ≥ 10 µM | 0.917
chain 1 W33Q W36V | ≥ 10 µM | 0.361
chain 1 D31G N35H | ≥ 10 µM | 0.64
chain 1 M105S D106N | ≥ 10 µM | 0.443
chain 1 G100F Y107I | ≥ 10 µM | 0.947
chain 1 S101F M105I | ≥ 10 µM | 0.522
chain 1 S30Y N35C | ≥ 10 µM | 0.686
chain 1 F29Q W36T | ≥ 10 µM | 0.359
chain 1 Y102E G104N | ≥ 10 µM | 0.819
chain 1 F29C D31M | ≥ 10 µM | 0.669
chain 1 G100R Y107P W108D | ≥ 10 µM | 0.43
chain 1 Y32E W36N | ≥ 10 µM | 1.09
chain 1 Y103E G109I | ≥ 10 µM | 0.277

Variant | Kd (fluorescein) | yeast surface expression [1]
chain 1 Y32M W33V | ≥ 10 µM | 0.941
chain 1 S30Q Y32V | ≥ 10 µM | 0.923
chain 1 Y32W V37S | ≥ 10 µM | 0.579
chain 1 Y32T V37H | ≥ 10 µM | 0.624
chain 1 Y103Q D106M | ≥ 10 µM | 0.805
chain 1 M34C N35I | ≥ 10 µM | 0.462
chain 1 G100W D106C | ≥ 10 µM | 0.437
chain 1 G100W S101E | ≥ 10 µM | 0.429
chain 1 G100Q G109M | ≥ 10 µM | 0.223
chain 1 D106P W108M | ≥ 10 µM | 0.714
chain 1 G100F G109V | ≥ 10 µM | 0.253
chain 1 T28I N35R | ≥ 10 µM | 0.849
chain 1 Y103L M105I | ≥ 10 µM | 0.741
chain 1 Y103N G104T Y107K | ≥ 10 µM | 0.619
chain 1 F29I N35A | ≥ 10 µM | 0.817
chain 1 G100N M105T | ≥ 10 µM | 0.413
chain 1 G100M M105P Y107D | ≥ 10 µM | 0.325
chain 1 Y102H Y107K | ≥ 10 µM | 1.05
chain 1 G100I S101G D106C | ≥ 10 µM | 0.777
chain 1 N35T V37P | ≥ 10 µM | 0.726
chain 1 G100P D106M | ≥ 10 µM | 0.537
chain 1 Y103K G104R W108V | ≥ 10 µM | 0.32
chain 1 Y103Q M105T | ≥ 10 µM | 0.874
chain 1 S101L D106G | ≥ 10 µM | 0.289
chain 1 Y102H G104N M105S | ≥ 10 µM | 1.54

Further lines, with some results ahead:

Kd (fluorescein) | Variant | yeast surface expression [1]
≥ 10 µM | chain 1 N35H W36S | 0.692
0.00194 µM | chain 1 D31H Y32F | 0.801
≥ 10 µM | chain 1 G100R G104S | 0.28
≥ 10 µM | chain 1 F29I W33D M34W | 0.719
≥ 10 µM | chain 1 Y102V Y107D | 0.452
6.96 µM | chain 1 F29C V37E | 0.973
5.66 µM | chain 1 S30W Y32C | 0.838
1.26 µM | chain 1 Y103D Y107N | 1.12
0.185 µM | chain 1 F29V Y32W M34W | 1.07
0.0507 µM | chain 1 D31L V37F | 0.743
0.00104 µM | chain 1 M34F V37C | 0.75
0.0132 µM | chain 1 Y103H | 1.1
0.0113 µM | chain 1 S30I M34V | 0.753
2.01 µM | chain 1 Y102Q Y107H | 1.01
9.5 µM | chain 1 G100H D106F | 0.752
0.00708 µM | chain 1 T28P F29V | 0.927
0.000454 µM | chain 1 M105W W108V | 0.756
0.000504 µM | chain 1 T28K F29Y | 0.984

Kd (fluorescein) | Variant | yeast surface expression [1]
0.00371 µM | chain 1 D31T | 0.766
0.00293 µM | chain 1 D31W | 0.566
0.00204 µM | chain 1 D31R | 0.736
0.00993 µM | chain 1 Y32A | 1.15
0.00361 µM | chain 1 Y102W | 0.638
0.00142 µM | chain 1 M34L | 0.971
1.23 µM | chain 1 M34G | 0.682
0.000333 µM | chain 1 V37M | 0.958
0.00194 µM | chain 1 V37Q | 0.731
0.00239 µM | chain 1 Y107S | 0.77
0.0372 µM | chain 1 Y107M | 0.921
0.676 µM | chain 1 Y107I | 0.995
0.000939 µM | chain 1 Y107L W108L | 0.676
0.02 µM | chain 1 S30T W36M | 0.705
0.579 µM | chain 1 D31C M34E | 0.778
0.00128 µM | chain 1 T28W V37C | 0.75
0.0146 µM | chain 1 Y102F M105R | 1.2
0.00135 µM | chain 1 T28K S30I | 0.889

Reference: the FLAb antibody collection (doi:10.7554/elife.23156)
